Results as given in patent US20250381283A1, “METHOD FOR TREATING SOLID TUMOR” (priority 2022, published 2025).

Target: T1, TROP2 (Trophoblast cell surface antigen 2) (UniProt P09758 27-323, limits assumed)
T1 sequence (looked up): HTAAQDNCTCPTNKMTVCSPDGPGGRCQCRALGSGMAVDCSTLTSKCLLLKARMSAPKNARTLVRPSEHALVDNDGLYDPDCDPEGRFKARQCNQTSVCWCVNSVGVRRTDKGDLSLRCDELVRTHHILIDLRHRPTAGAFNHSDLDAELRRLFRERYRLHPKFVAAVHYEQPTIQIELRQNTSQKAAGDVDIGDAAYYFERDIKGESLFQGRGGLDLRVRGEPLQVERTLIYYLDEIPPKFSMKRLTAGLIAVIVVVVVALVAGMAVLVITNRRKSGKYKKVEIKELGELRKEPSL
Assay: cell-based or functional assay

B1: ADC1 (hRS9 antibody conjugated to CB07-Exatecan) (antibody, human IgG1, kappa, DAR 4.2, V domains shown)
VH: QVQLQQSGSELKKPGASVKVSCKASGYTFTNYGMNWVKQAPGQGLKWMGWINTYTGEPTYTDDFKGRFAFSLDTSVSTAYLQISSLKADDTAVYFCARGGFGSSYWYFDVWGQGTLVTVSS
VL: DIQLTQSPSSLSASVGDRVSITCKASQDVSIAVAWYQQKPGKAPKLLIYSASYRYTGVPDRFSGSGSGTDFTLTISSLQPEDFAVYYCQQHYITPLTFGAGTKVEIKR
modifications: CB07-Exatecan linker-drug conjugated to sulfhydryls of TCEP-reduced cysteines; average DAR (p) 4.2 over the whole antibody; positions not given
growth inhibition EC50 (CCK-8 cell proliferation, 120 h), MDA-MB-453 cells: 640 ng/mL
growth inhibition EC50 (CCK-8 cell proliferation, 120 h), MDA-MB-468 cells: 158 ng/mL
growth inhibition EC50 (CCK-8 cell proliferation, 120 h), MX-1 cells: 233 ng/mL
